The target in this data set is T1, LeuB DBD (LeuBM50-125YS, SPR) (Aspergillus fumigatus, UniProt Q4WI12 224-299).
T1 sequence: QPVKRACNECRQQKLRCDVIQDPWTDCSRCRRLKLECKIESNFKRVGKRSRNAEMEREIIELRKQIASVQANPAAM
Briefly: SPR; 10 uM ZnCl2; 30 ug/ml poly(dAdT); SPR: 10 mM HEPES pH 7.4, 150 mM NaCl, 0.005% P20, 5 mM beta-mercaptoethanol, 10 uM ZnCl2, 25 C, LeuB DBD 6.25-400 nM with 30 ug/ml poly(dAdT); EMSA: as previously described (not given), 1 ug salmon sperm DNA as nonspecific or 100-fold cold probe as competitor. Conditions: protein: recombinant; tags: none stated; chain copies: 2; label: biotin; 16 bp duplex. A general note: Surface plasmon resonance follows binding to a sensor surface in real time, without labels.

B1: hapX 16 bp SPR duplex (dsDNA)
DNA 1: CCGCCGAAATCGGGAA
DNA 2: TTCCCGATTTCGGCGG
As usually defined, the Kd is a measure of binding affinity in units of concentration. As for B1, the dissociation constant (Kd) was 160 nM.

B2: leuA 16 bp SPR duplex (dsDNA)
DNA 1: GGACCGATGTCGGATC
DNA 2: GATCCGACATCGGTCC
In the case of B2, the dissociation constant (Kd) came out at 95.2 nM.

The values above are taken from paper PMC6221358, “The Zn2Cys6-type transcription factor LeuB cross-links regulation of leucine biosynthesis and iron acquisition in Aspergillus fumigatus”.
